In patent US12637662B2, “Cells, islets, and organoids that evade immune detection and autoimmunity, methods of production and use thereof” (SALK INSTITUTE FOR BIOLOGICAL STUDIES, priority 2018, dated 2026):
Entries after “also recorded” stand apart in the source; their conditions may differ.

Tests used:
[1] = system: insulin-expressing cells of HILOs; assay: Mitochondrial content (MitoTracker) and insulin-GFP by flow cytometry; assay type: cell-based, human
Excerpt: FIGS. 8A-8H provide images, graphs, a schematic and a diagram showing results related to WNT4 mediated insulin-GFP expression and WNT4-driven metabolic maturation. FIG. 8A presents representative images of mitochondrial content, indicated by MitoTracker (red) staining, in PBS and WNT4 treated HILOs (scale bar, 100 μm). FIG. 8B presents graphs of flow cytometry quantification of insulin expression (GFP) and mitochondrial content in HILOs treated with recombinant human WNT4 (rhWNT4), WNT5A (rhWNT5A), or conditioned medium (CM) from control or WNT5A overexpressing fibroblasts (n=3). Error bars represent SEM. *p<0.05. FIG. 8C presents a gene ontology of transcriptional changes induced by WNT4 treatment (100 ng/ml WNT4 from day26 to day33) in HILOs. […] Error bars represent SEM. *p<0.05. FIG. 8E presents a Venn diagram showing overlap between WNT4-induced increases in chromatin accessibility in GFP^+ cells and increases in HILO gene expression (upper panel), and gene ontology pathways enriched in the intersection gene set. […] For FIGS. 8G and 8H, postnatal islets (day P11-14) from WT and β cell specific ERRγKO mice were cultured with or without rhWNT4 (100 ng/ml) for >5 days.

[2] = system: chromatin accessibility in HILO cells; assay: ATAC-Seq chromatin accessibility in HILOs; assay type: cell-based, human; details: sorted GFP+ cells, WNT4 treatment
Excerpt: […] D. Buenrostro et al., 2015, Current Protocols in Molecular Biology, 109:21-29. Reads were aligned by Bowtie to hg19, and peaks were called by HOMER using default settings. Differential peaks and motif analyses from 2 biological duplicates were identified using HOMER essentially as instructed (see, e.g., S. Heinz et al., 2010, J. Mol. Cell, 38:576-589). Detailed methods for HOMER are freely available, e.g., at http://http://homer.salk.edu/homer/. Briefly, the program searches against the target and background sequences for enrichment of known motifs, and returns motifs enriched with a threshold of 1.5-fold change and a p-value of less than 0.05. Promoter regions, defined as 1 kilobase (kB) upstream from the transcription start site, of genes with enhanced chromatin accessibility upon Wnt4 treatment, were interrogated for enriched motifs of 8-16 bp using HOMER motif analysis.

[3] = system: postnatal mouse islets; assay: rhWNT4 culture of postnatal islets from WT and β cell specific ERRγKO mice; assay type: cell-based; details: 100 ng/ml for 5 days; WT but not ERRγKO mice
Excerpt: FIGS. 8A-8H provide images, graphs, a schematic and a diagram showing results related to WNT4 mediated insulin-GFP expression and WNT4-driven metabolic maturation. FIG. 8A presents representative images of mitochondrial content, indicated by MitoTracker (red) staining, in PBS and WNT4 treated HILOs (scale bar, 100 μm). FIG. 8B presents graphs of flow cytometry quantification of insulin expression (GFP) and mitochondrial content in HILOs treated with recombinant human WNT4 (rhWNT4), WNT5A (rhWNT5A), or conditioned medium (CM) from control or WNT5A overexpressing fibroblasts (n=3). Error bars represent SEM. *p<0.05. […]
Insulin release from intact islets was monitored using batch incubation methods as reported by E. Yoshihara et al., 2016, Cell metabolism, 23:622-634. […] After 30 minutes, the islets were pelleted by centrifugation and secreted insulin levels were determined in the medium by Enzyme Linked Immunosorbent Assay (ELISA), (Rat/mouse Insulin ELISA KIT (Millipore) and Human Insulin ELISA KIT or ultrasensitive human c-peptide ELISA Kit (Millipore) for mouse and human islets, respectively). […] After 30 minutes, the cells were pelleted by centrifugation and c-peptide levels were determined in the supernatant medium using the human c-peptide ELISA KIT (Millipore). […]

[4] = system: human iPSC derived cells (islet-like organoids, MCS, HILOs); assay: Glucose-stimulated insulin/c-peptide secretion assay (GSIS, ELISA); assay type: cell-based
Experimental: Insulin release from intact islets was monitored using batch incubation methods as reported by E. Yoshihara et al., 2016, Cell metabolism, 23:622-634. Briefly, overnight-cultured, isolated pancreatic islets (RPMI-1640 medium supplemented with 10% (v/v) fetal bovine serum and 1% (v/v) Antibiotic-Antimycotic (Gibco)) were pre-cultured at 37° C. for 30 minutes in Krebs-Ringer bicarbonate buffer (KRBB) containing 129.4 mM NaCl, 3.7 mM KCl, 2.7 mM CaCl2), 1.3 mM KH2PO4, 1.3 mM MgSO4, 24.8 mM NaHCO3 (equilibrated with 5% CO2, 95% O2, pH 7.4), 10 mM HEPES and 0.2% (v/v) BSA (fraction V, Sigma) (KRBH) with 3 mM glucose). […] After 30 minutes, the islets were pelleted by centrifugation and secreted insulin levels were determined in the medium by Enzyme Linked Immunosorbent Assay (ELISA), (Rat/mouse Insulin ELISA KIT (Millipore) and Human Insulin ELISA KIT or ultrasensitive human c-peptide ELISA Kit (Millipore) for mouse and human islets, respectively). […] After 30 minutes, the cells were pelleted by centrifugation and c-peptide levels were determined in the supernatant medium using the human c-peptide ELISA KIT (Millipore). […]
Insulin release from intact islets was monitored using batch incubation methods (Yoshihara et al., 2010, Nat. Commun. 1:127). […] After 30 min, the cells were pelleted by centrifugation and c-peptide levels were determined by human c-peptide ELISA KIT (Millipore).

B1: WNT4: recombinant human Wnt4 protein (R&D Systems), non-canonical WNT maturation factor (protein, UniProt P56705 23-351, looked up)
Protein Wnt-4: SNWLYLAKLSSVGSISEEETCEKLKGLIQRQVQMCKRNLEVMDSVRRGAQLAIEECQYQFRNRRWNCSTLDSLPVFGKVVTQGTREAAFVYAISSAGVAFAVTRACSSGELEKCGCDRTVHGVSPQGFQWSGCSDNIAYGVAFSQSFVDVRERSKGASSSRALMNLHNNEAGRKAILTHMRVECKCHGVSGSCEVKTCWRAVPPFRQVGHALKEKFDGATEVEPRRVGSSRALVPRNAQFKPHTDEDLVYLEPSPDFCEQDMRSGVLGTRGRTCNKTSKAIDGCELLCCGRGFHTAQVELAERCSCKFHWCCFVKCRQCQRLVELHTCR
proportion of insulin expressing cells ([1]; GFP sorting, HILOs with and without WNT treatment): not affected
mitochondrial content / number ([1]; MitoTracker, HILOs / insulin-expressing cells): increased mitochondrial number; also recorded: increased the mitochondrial content
genes with both increased chromatin accessibility and induced expression [2]: 123 genes
mitochondrial metabolic gene expression and GSIS in neonatal islets [3]: induced the expression of mitochondrial metabolic genes and improved GSIS function
glucose-stimulated insulin (c-peptide) secretion in vitro ([4]; 3 mM vs 20 mM glucose): showed functional maturation
pseudo-islet formation and GSIS of commercially-available hiPSC-derived β like cells ([4]; 3D differentiation medium containing WNT4): promoted pseudo-islet formation and GSIS functionality
